From the DeepSol protein solubility set

Assay: soluble on expression in E. coli; label from the status in PepcDB or PDB records

Sequence | soluble on expression in E. coli
MGHHHHHHSHMVSTATHSLSRLHTMLTGLRNAPSEKLEQILRTCSRDPTQAIANRLKEMFEIYSQHFQPDEDFSNCAKEIASKHFRFAEMLYYKVLESVIEQEQKRLGDMDLSGILEQDAFHRSLLACCLEVVTFSYKPPGNFPFITEIFDVPLYHFYKVIEVFIRAEDGLCREVVKHLNQIEEQILDHLAWKPES | not soluble
SSYCKQEGKDCIIFVTKEDHEAPSNAELVEDDPNDPYEDHGLILPNGDINWNCPCLGGMASGPCGQQFKDAFSCFHYSKEEIKGSDCVENFRGMQECMQKYPELYPQEDDNDSAPSGGANTAPTDSLPASSTDSTAAAATENPATS | soluble
GPGSMQKENDRMRKKKDEAREEEEISIFHCDDGSVYEGRVTRREIPVELPLGMPTPAPASTLRGQPPPEVMPQIVPIQHGKGIFKDAGGTIYDGNWIEGAMCGEGVLQFPSGATYTGGMRANEFCGTGTYNWPDGSRYEGQWENNRMHGFGVYVDAQGGRWAGKFYRGCGVGLLGEIHL | soluble
MAHHHHHHMSNNYFNNEAPPDNINNLSYDEGLEQQYNFTDNEEEIFSSFFSDNKKNICLPKSLREHMLIEYTAMFVNIEGDIAEFYLKLDNDVLIKFPFLHVDHPLHRYYEFVKLNTKKRLITKYPKIIPSPLKDLFQYVTDLENTKVINNEIKSKKLKEKQIEHVKNKKGNKQILMKQKENQSYSSLFMRYMQSDDEKSNSTVENDKNEEHNEDTLSNESMMEIDNIIKKLKDKKDKSSMQTARFYLQCIEKLKFLQYGTKQYKYFVQKLLYDQNRLNVNNSDIKVRQKIHSTDFLEFLLKTDEHKKSLDNVINEDIYEQQNSHETETERDDLQTMQDYRR | not soluble
RVMDMKAPIKVYMTKKLLGVKPSTSVQEASRLMMEFDVGSLVVINDDGNVVGFFTKSDIIRRVIVPGLPYDIPVERIMTRNLITANVNTPLGEVLRKMAEHRIKHILIEEEGKIVGIFTLSDLLEASRRRLETAISAE | soluble
MYKTIIMPVDVFEMALSDKAVRHAEFLAQQDGVIHLLHVLPGSASFTMSRFTADLRRFEEHLQHEAETRLQTMVSHFSIDPSRIKLHVRFGSVRDMVNELASEINADVVVIGSRNPSISTHLLGSNASSVIRHAHIPVMVVR | not soluble
MHFSRIVSGLACSIILNISVSNANAAQVENYTQYLPDGANLALMVQKIGASTPAIDYHAQQMALPASTQKVLTALAALLQLGPDFRFNTTLESHGTITDGVLRGNLIARFGGDPTLTRQQLRNMVATLRKAGVKQIAGDVVIDTSVFASHDKAPGWPWNDMTQCFSAPPAAAIVDRNCFSVSLYSAPNPGDTAFIRVASYYPVQMFSEVRTLAKGSPDAQYCELDVVPGELNRFTLTGCLTQRSEPLPLAFAVQNGASYAGAILKDELKKADIQIDGNLRRQTIPSPAGNVLAQTQSAPLHDLLKIMLKKSDNMIADTVFRTIGHQRFGVPGTWRSGADAVRQILRQKAGVDLGNSIVVDGSGLSRHNLISPATMMQVLQYIAQNDQELNFISMLPLAGYDGTLRYRGGLHEAGVNGKVSAKTGALQGVYNLAGFITTASGQRMAFVQFLSGYAVPPEDQKNRRAPLVRFESRLYKDIYQNN | not soluble
MSFTPANRAYPYTRLRRNRRDDFSRRLVRENVLTVDDLILPVFVLDGVNQRESIPSMPGVERLSIDQLLIEAEEWVALGIPALALFPVTPVEKKSLDAAEAYNPEGIAQRATRALRERFPELGIITDVALDPFTTHGQCGILDDDGYVLNDVSIDVLVRQALSHAEAGAQVVAPSDMMDGRIGAIREALESAGHTNVRVMAYSAKYASAYYGPFRDAVGSASNLGKGNKATYQMDPANSDEALHEVAADLAEGADMVMVKPGMPYLDIVRRVKDEFRAPTFVYQVSGEYAMHMGAIQNGWLAESVILESLTAFKRAGADGILTYFAKQAAEQLRRGR | soluble
MGHHHHHHSHSPGSASGGSREYKVVMLGAGGVGKSAMTMQFISHQFPDYHDPTIEDAYKTQVRIDNEPAYLDILDTAGQAEFTAMREQYMRGGEGFIICYSVTDRQSFQEAAKFKELIFQVRHTYEIPLVLVGNKIDLEQFRQVSTEEGLSLAQEYNCGFFETSAALRFCIDDAFHGLVREIRKKESMP | soluble
MTGPTTDADAAVPRRVLIAEDEALIRMDLAEMLREEGYEIVGEAGDGQEAVELAELHKPDLVIMDVKMPRRDGIDAASEIASKRIAPIVVLTAFSQRDLVERARDAGAMAYLVKPFSISDLIPAIELAVSRFREITALEGEVATLSERLETRKLVERAKGLLQTKHGMTEPDAFKWIQRAAMDRRTTMKRVAEVVLETLGTPKDT | soluble
MVKANVQAIDQLDAEQLGSGMVITDRQLSIVAVSEPTPRWLGFAKNELVGRPVGVLFSAEWSAALLDGIAEAVKKDGCWQGEARHVAKSGKAYTSWMNVYRLSGSEGEWLVWHFVEQTAMPPADRPTTSELLGVIYDSAPFAVVPVAADGTVQDWGLSAERLFGRRKEEAVGRPIWSLFRCGSQTWLPFPPKEQRCGEGMVQRRDGTSANVSYTVIPMLQADGYIVLVEDETKQKQKEAERRRQVELAKKIQQNLLTPLIQNEAVTMDAVYIPSDDLSGDIYACYQIDLYRYGVIVIDVMGHGISSALVSMLLRSLLRGLIVRVIDPVSVASELEKHVQTLFPDEANDIRHLFSMIYLVIDTKERKIEYTNAGHPAGLLVFDDGSVHELDKGGLAIGSPFSLPFEKGVIHYDKRARLLLYTDGILEEIDPSILQSIEKIRSCTQMCRHLPDKRFLERLISQGPPLVSPSDDICLLSITVHG | not soluble
MGSDKIHHHHHHMAEFTHLVNERRSASNFLSGHPITKEDLNEMFELVALAPSAFNLQHTKYVTVLDQDVKEKLKQAANGQYKVVSSSAVLLVLGDKQAYQQAADIYEGLKVLGILNKQEYDHMVQDTVSFYENRGEQFKRDEAIRNASLSAMMFMLSAAAAGWDTCPMIGFDAEAVKRILNIDDQFEVVMMITIGKEKTESRRPRGYRKPVNEFVEYM | soluble
MAHHHHHHMVQEWWVSAAQEAVISRKATSRAERIVTEADDPRSGTSHFYDSDARLCLVCNARLEGSYSAHSHSVDHKPRVALLKRTIGMILTFLEQAGSSPSLPPPPESDSPYSLPGSKRFLVSVSTHTGTPAAPAPSCFHALYAESPLFAEDGVPSRALLYHRPCTLREFDLVDVIMRRWWNTLHNPPPRRGSISFDRLLSLSSAELQMRRWRVRYLLHFLKSRGVLRSCLTLRSDQVNAAPSPNERIHRGEAFERLEMVGDFFFKSLTPDRMHTVFPADEGGLTAELQCFERALDSNHGLLAIYDYLGLDDIVGCFLANNKAKADVVEAVIGELKVLLWSTEVVWGMEYYAVPGERATHVYLRALVAHTIAELGHTVLMWQLESTLRNCRDFLLKHTVEEYLGAEKGNERRASRGGDGCDVPADLPKYSPLPPLLAWNRRRLGVSMRRGEVPLASKQSRSSIPPSPQDPLRRLAPTASCIPEAIRDHYAVGRKKWSSYACKTAIQALCASLTQTALQHDSGHTADALSLNSSSASLPLSPEPQPSPTTPAYACVPRSVLRALVTANCVVIRNSAPPLARSTSTRRVAG | not soluble
MGSDKIHHHHHHLKVLMYSISLAYMIRNLPYASLRAFEAVVRLGSFSAAAGDLGVSQSAVSQHVKSLEEWLGQELLVRGARASKGTRYGTLLAREIDRGLGGISEVCTQIRAASHSDTTVVISCLPGFAFTWLFPRLLRFDLAHPDLSISIATDTGGRPFNPADADIGIRYGHGEFPNLRVDHLMGERLFPVCAPQVAERLTDVASLGQHTLLQDEILNFGSANPSWEYWAEACGVHLPSRARTRRFGQSNLVLQAAIEGLGVALGREPLVLDALTDGRLVRPFTQNVKSPLSYWLVRRKQADDSPKVQEFLKWIKKEAETQPDIPASLNKFA | not soluble
MSLSNLTIDVQTVTQKGKKPYIEYQINRPSFHNFSDSKFQNKLNFYYKKSTDKFKTRLEKDAKKYYKETEGSSTPFHPYVANVDYKVSLNKPPLLSLYLNYYQYTGGAHGMYTWKANTFDLKEKKLLHLDDLFQQEDKYKEVIRAEIVRKIKQNEGIYFPDATEKVMSTKKFHFFLEPNNLVIYFPLYEIAPYSSGIPQFRIPYTLLREYLKPSYQNILIDNKEGHHHHHH | soluble
MGSDKIHHHHHHMGQRIIIDPVTRIEGHAKISIHLDDHGDVAETRFHVTEFRGFERFCIGRPFWEMPGITARICGICPVSHLLASARAGDGILAVLIPPAAEKLRRLMNLAQIIQSHALSFFHLSGPDLMLGFDSDPAQRNIFGLIAADPDVARNGIRLRQFGQEVIEMLGGRKIHPAWAVPGGVRSGLSASSRDHIRAKLPEMLTIACDALGRLKQLSAKYQREIETFGVFPSLYLGMVGPGGRWMHYGGKLRVIDHTGNILIDELDPIDYRDVIGEAVEPWSYLKFPYIRALGYPQGMYRVGPLARINICTTMGAERADAELRELRQAVGPVIHGSFYYHHARLIEIIAALERMEVLVEDDDLLSTELRADAGVNRHEAVGVSEAPRGTLFHHYRVDEKGLITDVNLIIATGQNNLAINRTVGQIAQSYIRHGQFDEGILNRIEAGVRAYDPCLSCSTHAVGQMAMEVDLYNAQGELINRLSR | not soluble
MSQIEFKNVSKVYPNGHVGLKNINLNIEKGEFAVIVGLSGAGKSTLLRSVNRLHDITSGEIFIQGKSITKAHGKALLEMRRNIGMIFQHFNLVKRSSVLRNVLSGRVGYHPTWKMVLGLFPKEDKIKAMDALERVNILDKYNQRSDELSGGQQQRISIARALCQESEIILADEPVASLDPLTTKQVMDDLRKINQELGITILINLHFVDLAKEYGTRIIGLRDGEVVYDGPASEATDDVFSEIYGRTIKEDEKLGVN | not soluble
MHALHFSASDKAALYREVLPQIESVVADETDWVANLANTAAVLKEAFGWFWVGFYLVDTRSDELVLAPFQGPLACTRIPFGRGVCGQAWAKGGTVVVGDVDAHPDHIACSSLSRSEIVVPLFSDGRCIGVLDADSEHLAQFDETDALYLGELAKILEKRFEASRQAV | soluble
MSLSEALERLIDQGVGREPADIVLKGGRFFDLVTGELVASDIAISGERIVGTCGDYEGREEIDVTGRIVVPGFIDTHLHIESSLVTPHEFDRCVLPLGITTVVCDPHEIANVLGTEGIQYFLDSAMETVMDIRVQLSSCVPATHLETSGADLPVGRLTPFRHHPKVIGLAEFMNFPGVVNKDPVCLAKLDAFQDGHIDGHAPLLRGKELNGYLAAGIRTDHECTSAEEALEKIRKGMHILVREGSVSKDLQALMPILTERLSPYLALCTDDRNPLDIAEQGHLDNMIRTAISAGVEPLAIYRAASISAARAFGLRDRGLVAPGWRADLVIVDSLENCKAELVLSAGRRVTDALFAGRKPVEPVGLDSVKAREVKAADFGLPYNEGETSVLGVLPGKIITEHRRYRLPAEGNRTGVDLDRDIIKVAVIERHGVNGNHANGFVQGFGLKKGAIASTVGHDSHNICVVGVNDDDMALAVNRLGEIKGGFVVVHDGKVTGEIALPVAGLMSLEPYERVRDTLHHLRQAAFALGATLEEPFLQLAFLPLPVIPHLKISDRGLVDVDRFMLIGEGHHHHHH | soluble
MGHHHHHHSHMHPWNQQVPDKESGGGSHGNAASSCSRFHYSYAGVHSESTHFSLVLLLDWAMAFILCPLTCPGECEGSTGKLECCLCLPSQWAVLTAAPHPYRWSQEAGRVGEGKIGKTGRPRPRQNSLPSLHFWSPVVMCL | not soluble
MSININRQNMHKMLQYKRRCIMYINTGYLNHSHKDFKDKSRPLIVGSCGTYRLSQHPKMPTYRPRGRLDYQIIYISSGLVHFHFDNPENETIIPAGHIVLFRPKELQKYEFYGKDKTQIYWLHFTGSDVKNTLRKYGFTDNKRVFNVGTSLEYEQVFKRIITELQRCQDNYEEMLMLLLRHLLIIFNRKITTEHVIRNEFLDSQMDTAITYFNTNYNRSINVEEYASSIGMSISWFIRSFRKYTGNTPVQFLTALRMTNAQVLLETTSYSINEIAGIVGYNNPLYFSRLFHKQKGCSPSEYRARNT | not soluble
